{"source": "patent US20200199241A1", "about": "(Chugai, published 2020)", "binders": {"B1": {"name": "antibody with VH3-IgG1-F939 heavy chain and L(WT)-CK light chain (antibody)", "heavy": "QVQLQESGPGLVKPSETLSLTCAVSGHSISHDHAWSWVRQPPGEGLEWIGFISYSGITNYNPSLQGRVTISRDNSKNTLYLQMNSLRAEDTAVYYCARSLARTTAMDYWGEGTLVTVSSASTKGPSVFPLAPSSKSTSGGTAALGCLVKDYFPEPVTVSWNSGALTSGVHTFPAVLQSSGLYSLSSVVTVPSSSLGTQTYICNVNHKPSNTKVDKKVEPKSCDKTHTCPPCPAPELRGGPKVFLFPPKPKDTLYISRTPEVTCVVVDVSHEDPEVKFNWYVDGVEVHNAKTKPREEQYNSTYRVVSVLTVLHQDWLNGKEYKCKVSNKALPAPIEKTISKAKGQPREPQVYTLPPSRDELTKNQVSLTCLVKGFYPSDIAVEWESNGQPENNYKTTPPVLDSDGSFFLYSKLTVDKSRWQQGNVFSCSVMHEALHYHVTQKSLSLSP", "light": "not shown", "notes": "L235R/S239K/M252Y/N434Y/Y436V; copies: 2 + 2"}, "B2": {"name": "VH3-IgG2-F890/L(WT)-CK (antibody)", "heavy": "QVQLQESGPGLVKPSETLSLTCAVSGHSISHDHAWSWVRQPPGEGLEWIGFISYSGITNYNPSLQGRVTISRDNSKNTLYLQMNSLRAEDTAVYYCARSLARTTAMDYWGEGTLVTVSSASTKGPSVFPLAPCSRSTSESTAALGCLVKDYFPEPVTVSWNSGALTSGVHTFPAVLQSSGLYSLSSVVTVPSSNFGTQTYTCNVDHKPSNTKVDKTVERKCCVECPPCPAPPVAGPSVFLFPPKPKDTLYISRTPEVTCVVVDVSHEDPEVQFNWYVDGVEVHNAKTKPREEQFNSTFRVVSVLTVVHQDWLNGKEYKCKVSNKGLPAPIEKTISKTKGQPREPQVYTLPPSREEMTKNQVSLTCLVKGFYPSDIAVEWESNGQPENNYKTTPPMLDSDGSFFLYSKLTVDKSRWQQGNVFSCSVMHEALHYHVTQKSLSLSP", "light": "not shown", "notes": "M252Y/N434Y/Y436V in VH3-IgG2; copies: 2 + 2"}, "B3": {"name": "VH3-IgG2/L(WT)-CK (antibody)", "heavy": "QVQLQESGPGLVKPSETLSLTCAVSGHSISHDHAWSWVRQPPGEGLEWIGFISYSGITNYNPSLQGRVTISRDNSKNTLYLQMNSLRAEDTAVYYCARSLARTTAMDYWGEGTLVTVSSASTKGPSVFPLAPCSRSTSESTAALGCLVKDYFPEPVTVSWNSGALTSGVHTFPAVLQSSGLYSLSSVVTVPSSNFGTQTYTCNVDHKPSNTKVDKTVERKCCVECPPCPAPPVAGPSVFLFPPKPKDTLMISRTPEVTCVVVDVSHEDPEVQFNWYVDGVEVHNAKTKPREEQFNSTFRVVSVLTVVHQDWLNGKEYKCKVSNKGLPAPIEKTISKTKGQPREPQVYTLPPSREEMTKNQVSLTCLVKGFYPSDIAVEWESNGQPENNYKTTPPMLDSDGSFFLYSKLTVDKSRWQQGNVFSCSVMHEALHNHYTQKSLSLSP", "light": "not shown", "notes": "copies: 2 + 2"}}, "key": {"human FcγRIIa(H) [1]": {"molecular_target": "T1, human FcγRIIa(H) (human, UniProt P12318 36-217)", "T1 construct": "also called hFcgRIIa(H); FcγRIIa type H", "T1 sequence": "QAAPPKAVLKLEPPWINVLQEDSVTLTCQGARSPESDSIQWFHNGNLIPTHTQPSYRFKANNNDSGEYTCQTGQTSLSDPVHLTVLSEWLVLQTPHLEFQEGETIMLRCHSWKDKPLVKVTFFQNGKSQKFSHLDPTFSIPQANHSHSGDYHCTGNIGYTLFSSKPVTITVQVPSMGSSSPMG", "test": "SPR, antibody captured by Protein L, human FcγR as analyte, pH 7.4, 25 C;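 further: biacore T100 or T200 with Protein L amine-coupled on a CM4 chip, FcγRs diluted in ACES saline with polysorbate 20, buffer-only injection as blank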"}, "human FcγRIIIa(V) [2]": {"molecular_target": "T2, human FcγRIIIa(V) (human, UniProt P08637 17-208, limits assumed)", "T2 construct": "also called hFcgRIIIa(V); allotype V158", "test": "SPR, antibody captured by Protein L, human FcγR as analyte, pH 7.4, 25 C"}, "human FcγRIa [3]": {"molecular_target": "T3, human FcγRIa (human, UniProt P12314 16-292, limits assumed)", "T3 construct": "also called hFcgRIa; hFcgRI", "test": "SPR, antibody captured by Protein L, human FcγR as analyte, pH 7.4, 25 C"}, "human FcγRIIa(R) [4]": {"molecular_target": "T4, human FcγRIIa(R) (human, UniProt P12318 36-217)", "T4 construct": "also called hFcgRIIa(R); FcγRIIa type R", "T4 chain": "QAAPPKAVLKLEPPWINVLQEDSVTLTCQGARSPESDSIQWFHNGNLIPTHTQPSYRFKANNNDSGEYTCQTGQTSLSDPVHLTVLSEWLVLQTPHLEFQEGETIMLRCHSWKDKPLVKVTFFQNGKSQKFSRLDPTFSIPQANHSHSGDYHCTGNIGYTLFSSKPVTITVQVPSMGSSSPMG", "test": "SPR, antibody captured by Protein L, human FcγR as analyte, pH 7.4, 25 C"}, "human FcγRIIb [5]": {"molecular_target": "T5, human FcγRIIb (human, UniProt P31994 43-217, limits assumed)", "T5 construct": "also called hFcgRIIb; FcγIIB", "T5 sequence": "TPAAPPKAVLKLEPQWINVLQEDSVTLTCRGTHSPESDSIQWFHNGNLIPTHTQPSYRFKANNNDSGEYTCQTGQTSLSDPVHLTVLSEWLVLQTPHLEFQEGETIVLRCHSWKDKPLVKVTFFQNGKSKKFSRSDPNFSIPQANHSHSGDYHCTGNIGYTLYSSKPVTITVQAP", "test": "SPR, antibody captured by Protein L, human FcγR as analyte, pH 7.4, 25 C"}, "mouse FcγRIV": {"molecular_target": "T6, mouse FcγRIV (mouse, UniProt A0A0B4J1G0 21-203)", "T6 construct": "bought; also called mFcgRIV; mFcgR IV; the vendor's purification tag not given", "T6 sequence": "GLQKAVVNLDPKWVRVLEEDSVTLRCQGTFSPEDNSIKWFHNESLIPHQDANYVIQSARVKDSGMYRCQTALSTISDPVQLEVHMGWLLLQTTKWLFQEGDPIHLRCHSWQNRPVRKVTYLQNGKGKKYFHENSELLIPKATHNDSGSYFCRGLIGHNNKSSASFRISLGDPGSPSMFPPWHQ", "test": "SPR, antibody captured by Protein L, mouse FcγR as analyte, pH 7.4, 25 C"}, "mouse FcγRIII": {"molecular_target": "T7, mouse FcγRIII (mouse, UniProt P08508 31-215)", "T7 construct": "bought; also called mFcgRIII; mFcgR III", "T7 sequence (looked up)": "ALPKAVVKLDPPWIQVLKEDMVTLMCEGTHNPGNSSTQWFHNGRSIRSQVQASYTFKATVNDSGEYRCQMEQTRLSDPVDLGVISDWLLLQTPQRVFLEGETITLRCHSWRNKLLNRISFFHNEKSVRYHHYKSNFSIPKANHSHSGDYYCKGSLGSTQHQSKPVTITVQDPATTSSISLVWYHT", "test": "SPR, antibody captured by Protein L, mouse FcγR as analyte, pH 7.4, 25 C"}, "mouse FcγRIIb": {"molecular_target": "T8, mouse FcγRIIb (mouse, UniProt P08101 30-207, limits assumed)", "T8 construct": "bought; also called mFcgRIIb; mFcgR IIb", "T8 sequence (looked up)": "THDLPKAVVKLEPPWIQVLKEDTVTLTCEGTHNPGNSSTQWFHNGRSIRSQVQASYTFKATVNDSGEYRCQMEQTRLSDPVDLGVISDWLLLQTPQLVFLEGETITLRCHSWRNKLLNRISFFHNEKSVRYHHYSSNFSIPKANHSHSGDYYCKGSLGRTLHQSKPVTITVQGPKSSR", "test": "SPR, antibody captured by Protein L, mouse FcγR as analyte, pH 7.4, 25 C"}, "mouse FcγRI": {"molecular_target": "T9, mouse FcγRI (mouse, UniProt P26151 25-297)", "T9 construct": "bought; also called mFcgRI; mFcgR 1", "T9 sequence (looked up)": "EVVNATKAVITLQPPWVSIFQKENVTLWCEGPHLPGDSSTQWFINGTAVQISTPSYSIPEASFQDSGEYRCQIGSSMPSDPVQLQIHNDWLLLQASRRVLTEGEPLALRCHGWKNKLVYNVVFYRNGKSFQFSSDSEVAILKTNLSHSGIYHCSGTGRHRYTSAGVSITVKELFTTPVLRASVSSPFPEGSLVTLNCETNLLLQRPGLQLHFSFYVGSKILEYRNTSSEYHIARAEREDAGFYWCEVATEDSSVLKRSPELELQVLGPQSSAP", "test": "SPR, antibody captured by Protein L, mouse FcγR as analyte, pH 7.4, 25 C"}, "[6]": {"molecular_target": "T10, human FcRn (soluble human FcRn complexed with β2-microglobulin) (human, UniProt P61769 21-119, limits assumed)", "T10 construct": "also called hFcRn", "T10 sequence (chain, as listed by the source limits assumed, chain 1 of 2)": "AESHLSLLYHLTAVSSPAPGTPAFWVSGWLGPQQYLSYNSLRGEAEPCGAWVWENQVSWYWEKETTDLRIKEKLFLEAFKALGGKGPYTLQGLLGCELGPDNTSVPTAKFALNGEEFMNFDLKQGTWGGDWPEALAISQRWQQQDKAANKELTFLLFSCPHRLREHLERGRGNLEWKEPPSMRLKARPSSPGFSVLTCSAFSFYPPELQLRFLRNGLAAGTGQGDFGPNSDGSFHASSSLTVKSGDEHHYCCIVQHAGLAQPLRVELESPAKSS", "T10 sequence (P61769 21-119 limits assumed, chain 2 of 2)": "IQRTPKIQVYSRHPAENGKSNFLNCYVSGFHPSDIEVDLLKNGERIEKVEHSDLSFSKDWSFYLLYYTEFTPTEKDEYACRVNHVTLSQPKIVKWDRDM", "test": "SPR, antibody captured by Protein L, human FcRn as analyte, pH 7.0, 25 C"}, "human FcγRIIa(H) [7]": {"molecular_target": "T11, human FcγRIIa(H) (human, UniProt P12318 36-217)", "T11 construct": "also called FcgRIIaH; hFcgRIIa(H)", "T11 sequence": "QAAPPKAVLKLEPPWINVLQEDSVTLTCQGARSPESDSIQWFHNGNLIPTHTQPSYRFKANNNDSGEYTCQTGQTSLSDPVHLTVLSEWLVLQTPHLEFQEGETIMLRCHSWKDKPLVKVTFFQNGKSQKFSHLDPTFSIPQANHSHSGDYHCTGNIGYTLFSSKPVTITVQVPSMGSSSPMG", "test": "SPR, pH 7.4, antibody captured by Protein L"}, "human FcγRIIIa(V) [8]": {"molecular_target": "T12, human FcγRIIIa(V) (human, UniProt P08637 17-208, limits assumed)", "T12 construct": "also called hFcgRIIIa(V); FcγRIIIa allotype V158", "test": "SPR, pH 7.4, antibody captured by Protein L"}, "human FcγRIIa(R) [9]": {"molecular_target": "T13, human FcγRIIa(R) (human, UniProt P12318 36-217)", "T13 construct": "also called FcgRIIaR; hFcgRIIa(R)", "T13 chain": "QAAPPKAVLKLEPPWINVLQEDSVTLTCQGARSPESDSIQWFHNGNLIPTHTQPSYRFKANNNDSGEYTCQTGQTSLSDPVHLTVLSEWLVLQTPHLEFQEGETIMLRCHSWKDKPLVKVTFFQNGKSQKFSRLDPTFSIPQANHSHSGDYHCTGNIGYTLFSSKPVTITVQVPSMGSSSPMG", "test": "SPR, pH 7.4, antibody captured by Protein L"}, "human FcγRIIb [10]": {"molecular_target": "T14, human FcγRIIb (human, UniProt P31994 43-217, limits assumed)", "T14 construct": "also called FcgRIIb; hFcgRIIb", "T14 sequence": "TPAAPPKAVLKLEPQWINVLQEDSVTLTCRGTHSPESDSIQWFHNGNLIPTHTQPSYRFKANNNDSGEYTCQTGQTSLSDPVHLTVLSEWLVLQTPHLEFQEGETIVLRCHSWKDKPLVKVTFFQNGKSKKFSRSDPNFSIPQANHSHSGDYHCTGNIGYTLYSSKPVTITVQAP", "test": "SPR, pH 7.4, antibody captured by Protein L"}, "human FcγRIa [11]": {"molecular_target": "T15, human FcγRIa (human, UniProt P12314 16-292, limits assumed)", "T15 construct": "also called FcgRIa; hFcgRIa", "test": "SPR, pH 7.4, antibody captured by Protein L"}}, "data": [{"binder": "B1", "values": [{"measurement": "BINDING AMOUNT (RU)", "setting": "human FcγRIIa(H) [1]", "value": -0.9, "unit": "RU"}, {"measurement": "BINDING AMOUNT (RU)", "setting": "human FcγRIIIa(V) [2]", "value": -0.75, "unit": "RU"}, {"measurement": "BINDING AMOUNT (RU)", "setting": "human FcγRIa [3]", "value": -2.37, "unit": "RU"}, {"measurement": "BINDING AMOUNT (RU)", "setting": "human FcγRIIa(R) [4]", "value": -0.8, "unit": "RU"}, {"measurement": "BINDING AMOUNT (RU)", "setting": "human FcγRIIb [5]", "value": -0.2, "unit": "RU"}, {"measurement": "BINDING AMOUNT (RU)", "setting": "mouse FcγRIV", "value": -7.3, "unit": "RU"}, {"measurement": "BINDING AMOUNT (RU)", "setting": "mouse FcγRIII", "value": -24.9, "unit": "RU"}, {"measurement": "BINDING AMOUNT (RU)", "setting": "mouse FcγRIIb", "value": -6.3, "unit": "RU"}, {"measurement": "BINDING AMOUNT (RU)", "setting": "mouse FcγRI", "value": -2, "unit": "RU"}, {"measurement": "Kd", "setting": "[6]", "value": 150, "unit": "nM"}]}, {"binder": "B2", "values": [{"measurement": "binding amount", "setting": "human FcγRIIa(H) [7]", "value": 204, "unit": "RU"}, {"measurement": "binding amount", "setting": "human FcγRIIIa(V) [8]", "value": 28.1, "unit": "RU"}, {"measurement": "binding amount", "setting": "human FcγRIIa(R) [9]", "value": 120, "unit": "RU"}, {"measurement": "binding amount", "setting": "human FcγRIIb [10]", "value": 31.9, "unit": "RU"}, {"measurement": "binding amount", "setting": "human FcγRIa [11]", "value": 19.7, "unit": "RU"}]}, {"binder": "B3", "values": [{"measurement": "binding amount", "setting": "human FcγRIIa(H) [7]", "value": 266, "unit": "RU"}, {"measurement": "binding amount", "setting": "human FcγRIIIa(V) [8]", "value": 50.1, "unit": "RU"}, {"measurement": "binding amount", "setting": "human FcγRIIa(R) [9]", "value": 188, "unit": "RU"}, {"measurement": "binding amount", "setting": "human FcγRIIb [10]", "value": 55.5, "unit": "RU"}, {"measurement": "binding amount", "setting": "human FcγRIa [11]", "value": 38.6, "unit": "RU"}]}]}
